In PMC11982978, “Cancer hotspot mutations rewire ERK2 specificity by selective exclusion of docking interactions” (The Journal of Biological Chemistry, 2025):
Where two headings read alike, the source gives them in different places. Blank lines part the entries; values can stand above or below the substance they belong to.

What was measured:
[1] = biological target: Active phosphorylated His6-tagged ERK2 WT (rat (p-0033 says mouse)) (UniProt P63086)
[2] = biological target: Active phosphorylated His6-tagged ERK2 D319N (rat (p-0033 says mouse)) (UniProt P63086)
[3] = biological target: Active phosphorylated His6-tagged ERK2 R133K (rat (p-0033 says mouse)) (UniProt P63086)
[4] = biological target: Active phosphorylated His6-tagged ERK2 E320K (rat (p-0033 says mouse)) (UniProt P63086)
[5] = biological target: Active phosphorylated His6-tagged ERK2 R133K (rat (p-0033 says mouse)) (UniProt P63086); remark: listed apart in the source
[6] = biological target: Active phosphorylated His6-tagged ERK2 WT (rat (p-0033 says mouse)) (UniProt P63086); remark: listed apart in the source
[7] = biological target: Active phosphorylated His6-tagged ERK2 E320K (rat (p-0033 says mouse)) (UniProt P63086); remark: listed apart in the source
[8] = biological target: Active phosphorylated His6-tagged ERK2 D319N (rat (p-0033 says mouse)) (UniProt P63086); remark: listed apart in the source
[9] = biological target: Active phosphorylated His6-tagged ERK2 WT (rat (p-0033 says mouse)) (UniProt P63086); remark: listed apart in the source
[10] = biological target: Active phosphorylated His6-tagged ERK2 R133K (rat (p-0033 says mouse)) (UniProt P63086); remark: listed apart in the source
[11] = biological target: Active phosphorylated His6-tagged ERK2 E320K (rat (p-0033 says mouse)) (UniProt P63086); remark: listed apart in the source
[12] = biological target: Active phosphorylated His6-tagged ERK2 D319N (rat (p-0033 says mouse)) (UniProt P63086); remark: listed apart in the source
[13] = biological target: Active phosphorylated His6-tagged ERK2 R133K (rat (p-0033 says mouse)) (UniProt P63086); remark: listed apart in the source
[14] = biological target: Active phosphorylated His6-tagged ERK2 WT (rat (p-0033 says mouse)) (UniProt P63086); remark: listed apart in the source
[15] = biological target: Active phosphorylated His6-tagged ERK2 WT (rat (p-0033 says mouse)) (UniProt P63086); remark: listed apart in the source
[16] = biological target: Active phosphorylated His6-tagged ERK2 R133K (rat (p-0033 says mouse)) (UniProt P63086); remark: listed apart in the source
[17] = biological target: Active phosphorylated His6-tagged ERK2 D319N (rat (p-0033 says mouse)) (UniProt P63086); remark: listed apart in the source
[18] = biological target: Active phosphorylated His6-tagged ERK2 E320K (rat (p-0033 says mouse)) (UniProt P63086); remark: listed apart in the source
[19] = biological target: Active phosphorylated His6-tagged ERK2 R133K (rat (p-0033 says mouse)) (UniProt P63086); remark: listed apart in the source
[20] = biological target: Active phosphorylated His6-tagged ERK2 E320K (rat (p-0033 says mouse)) (UniProt P63086); remark: listed apart in the source
[21] = biological target: Active phosphorylated His6-tagged ERK2 D319N (rat (p-0033 says mouse)) (UniProt P63086); remark: listed apart in the source
[22] = biological target: Active phosphorylated His6-tagged ERK2 WT (rat (p-0033 says mouse)) (UniProt P63086); remark: listed apart in the source
[23] = biological target: Active phosphorylated His6-tagged ERK2 R133K (rat (p-0033 says mouse)) (UniProt P63086); remark: listed apart in the source
[24] = biological target: Active phosphorylated His6-tagged ERK2 WT (rat (p-0033 says mouse)) (UniProt P63086); remark: listed apart in the source
[25] = biological target: Active phosphorylated His6-tagged ERK2 D319N (rat (p-0033 says mouse)) (UniProt P63086); remark: listed apart in the source
[26] = biological target: Active phosphorylated His6-tagged ERK2 E320K (rat (p-0033 says mouse)) (UniProt P63086); remark: listed apart in the source

Substance: AEBP1
IC50 [1]: 16 µM
IC50 [2]: 120 µM
IC50 [3]: 110 µM
IC50 [4]: 160 µM

Substance: ELMSAN1
IC50 [15]: 24 µM
IC50 [16]: 27 µM
IC50 [17]: 30 µM
IC50 [18]: 40 µM

Substance: ZBED6
IC50 [23]: 6.2 µM
IC50 [24]: 6.8 µM
IC50 [25]: 23 µM
IC50 [26]: 56 µM

Second part, the substance after the results:

IC50 [5]: 340 µM
IC50 [6]: 32 µM
Substance: ANAPC5

IC50 [7]: 14 µM
IC50 [8]: 9.8 µM
IC50 [9]: 5.1 µM
IC50 [10]: 5.7 µM
Substance: CBX7

IC50 [11]: 110 µM
IC50 [12]: 79 µM
IC50 [13]: 74 µM
IC50 [14]: 23 µM
Substance: DISC1

IC50 [19]: 23 µM
IC50 [20]: 28 µM
IC50 [21]: 26 µM
IC50 [22]: 18 µM
Substance: MLXIPL
